Laboratory results from the DeepSol protein solubility set.

Assay: soluble on expression in E. coli; label from the status in PepcDB or PDB records

**Q.** Which “soluble on expression in E. coli” value does the source give for “MADRKSDEGEDEYQHKEQMVTNRTSSFQPKSTEDSISKLAKMRAADRREEFMEERASFSAVKRGYQAGDDEEDDFTAEEEPPAKKPLTVAERLMAAMGHKAGEGLGKHGQGISEPIASSTQRGRTGLGHNAGKATARDFNEVWDETTEEKTVVERVEWMTDIEEEKRAEICEQLKDDKWMVIGKEKRTIDDETKFCSQQSITEMIEAKNVFDLMSDKDLREARTRANPYETIGSAFFQNRAAMKTANMDKIYDWILSRENTENDRFLLKNPLQESQTAENVDRSEDLFYFADVCAGPGGFSEYMLWRKGFYNAKGFGFTLAGKDDFKLFKFTASSQYFFETFYGTKDNGDVMDPVNIDSLEAHISRGTSGLGVHLMMADGGFSVEGQENIQEILSKRLYLCQLLVSLCIVREGGNFFCKLFDIFTPFSVGLIYLMRVCYQSVSLHKPHTSRPANSERYITCKGLRKEFANVVKEYLKRVNRKLDELKNKKSHDDVTDLMPLDVIEADQIFMDEIIRHNEFLANRQTLYLRKYQSFAKNQGQFDKDQGNLRDECLKYWQVPNKQRPRGGDRGNRHDNMQRLNPLQVYGKYCKKVCGESEIGNTFPDFSLNCLDAPLPNIPYEEYRFVPLASSGSPNLLIAAGDSAFIFRSGRFESISADHIRIPENTILLVDWAEEVVRGDGNRIKISSEPQVVRIIDAAVLFGDDVSNLPYEERMKAAEKFVAALKQTNRKVKKGWGHRAEMIKPHLKICAKTYSLAELDEFRSNLEKLEHNRELAVLFTEGEFTFRCQALRFTRIIKQEWRMGWSKSQQKPYAHSQEHQNAGSIPVELWAEKSIYSSFWDSVICLNKDKKKLMEAMEHTKGKCPIPSSIWSWKACILNLFPFFSVRTPYGPEKILNYPEPFEGKPTIAALKAQIENTDLIVKRVRN” here?
**A.** The value was “not soluble”.

**Q.** For “MADSEADKPLRKISAAFKKLAIIVNSPNPEVPVTQFSHACSLVSPLFGCLGIAFKFAEMDYVAKVDDLVRASSSISTLVVMMDKDIEADCVRKAGSHTRNLLRVKRGLDMVKVLFEQIIASEGDNSLKDPATKSYAQVFAPHHGWAIRKAVSLGMYALPTRAHLLNMLKEDEAAAKIHMQSYVNSSAPLITYLDNLFLSKQLGIDW”, which “soluble on expression in E. coli” value is on record?
**A.** Its value is “not soluble”.

**Q.** Which “soluble on expression in E. coli” value does the source give for “MADSKAKPAKAANKTPPKSPGDPARAAKRLSLESEGANEGATAAPELSALEEAFRRFAVHGDTRATGKEMHGKNWSKLCKDCHVIDGKNVTVTDVDIVFSKIKGKSCRTITFEQFQEALEELAKKRFKDKSSEEAVREVHRLIEGRAPVISGVTKAVSSPTVSRLTDTSKFTGSHKERFDQSGKGKGKAGRVDLVDESGYVPGYKHAGTYDQKVQGGK” here?
**A.** Its value is “soluble”.

**Q.** For “MADSNSTVEQYRSLKRKMIEKKDLMRNNRTALRACILFNCLLGTSIRDAYNQFCRAVGSDVMEYREYEFWFYQFKRGDADFSDAISWNPNTIKLDELPIEVINTISSFSMPMERLTLRKVSKNLRTLIDSEPFCFQRIIVRIGHRTSYLQLDGYPGIEYIHCGADCNVLYGKRDKYVKNKNHVEYALTEAIQLMRNSNNHSKEFHVRAERSNDQELSMVLRKFFDSVEIELYAKKIVVSGFSFADTSSVLCHFKAGFLEEIQVLPGSGGPWTNVLVEMEQYKKAKVLKICTEFPVLLDIEDLLHFRRFEIAIKSDFTERMARKIRDVLTNSEHFEYAHIITQDLHHRTVIKFFNRNAENVFWNYGSMNYNNKKRLFHIEYNHRQFVIKKLNM”, which “soluble on expression in E. coli” value is on record?
**A.** Its value is “not soluble”.

**Q.** Which “soluble on expression in E. coli” value does the source give for “MADTKAKLTLNGDTAVELDVLKGTLGQDVIDIRTLGSKGVFTFDPGFTSTASCESKITFIDGDEGILLHRGFPIDQLATDSNYLEVCYILLNGEKPTQEQYDEFKTTVTLHTMIHEQITRLFHAFRRDSHPMAVMCGITGALAAFYHDSLDVNNPRHREIAAFRLLSKMPTMAAMCYKYSIGQPFVYPRNDLSYAGNFLNMMFSTPCEPYEVNPILERAMDRILILHADHEQNASTSTVRTAGSSGANPFACIAAGIASLWGPAHGGANEAALKMLEEISSVKHIPEFFRRAKDKNDSFRLMGFGHRVYKNYDPRATVMRETCHEVLKELGTKDDLLEVAMELENIALNDPYFIEKKLYPNVDFYSGIILKAMGIPSSMFTVIFAMARTVGWIAHWSEMHSDGMKIARPRQLYTGYEKRDFKSDIKR” here?
**A.** The value was “soluble”.

**Q.** For “MAEDEPDAKSPKTGGRAPPGGAEAGEPTTLLQRLRGTISKAVQNKVEGILQDVQKFSDNDKLYLYLQLPSGPTTGDKSSEPSTLSNEEYMYAYRWIRNHLEEHTDTCLPKQSVYDAYRKYCESLACCRPLSTANFGKIIREIFPDIKARRLGGRGQSKYCYSGIRRKTLVSMPPLPGLDLKGSESPEMGPEVTPAPRDELVEAACALTCDWAERILKRSFSSIVEVARFLLQQHLISARSAHAHVLKAMGLAEEDEHAPRERSSKPKNGLENPEGGAHKKPERLAQPPKDLEARTGAGPLARGERKKSVVESSAPGANNLQVNALVARLPLLLPRAPRSLIPPIPVSPPILAPRLSSGALKVATLPLSSRAGAPPAAVPIINMILPTVPALPGPGPGPGRAPPGGLTQPRGTENREVGIGGDQGPHDKGVKRTAEVPVSEASGQAPPAKAAKQDIEDTASDAKRKRGRPRKKSGGSGERNSTPLKSAAAMESAQSSRLPWETWGSGGEGNSAGGAERPGPMGEAEKGAVLAQGQGDGTVSKGGRGPGSQHTKEAEDKIPLVPSKVSVIKGSRSQKEAFPLAKGEVDTAPQGNKDLKEHVLQSSLSQEHKDPKATPP”, which “soluble on expression in E. coli” value is on record?
**A.** Its value is “soluble”.

**Q.** Which “soluble on expression in E. coli” value does the source give for “MAEDIEEILAEIDGSQIEEYQKFFDAFDRGKQGYIMATQIGQIMHGMEQDFDEKTLRKLIRKFDADGSGKLEFDEFCALVYTVANTVDKETLEKELREAFRLFDKEGNGYISRPTLKALLKEIADDLTDQQLEEAVDEIDEDGSGKIEFEEFWELMAGESD” here?
**A.** Its value is “not soluble”.

**Q.** With “MAEEQARHVKNGLECIRALKAEPIGSLAIEEAMAAWSEISDNPGQERATCREEKAGSSGLSKPCLSAIGSTEGGAPRIRGQGPGESDDDAETLGIPPRNLQASSTGLQCHYVYDHSGEAVKGIQDADSIMVQSGLDGDSTLSGGDNESENSDVDIGEPDTEGYAITDRGSAPISMGFRASDVETAEGGEIHELLRLQSRGNNFPKLGKTLNVPPPPDPGRASTSGTPIKKGTDARLASFGTEIASSLTGGATQCARKSPSEPSGPGAPAGNVPECVSNAALIQEWTPESGTTISPRSQNNEEGGDHYDDELFSDVQDIKTALAKIHEDNQKIISKLESLLLLKGEVESIKKQINRQNISISTLEGHLSSIMIAIPGLGKDPNDPTADVEINPDLKPIIGRDSGRALAEVLKKPVASRQLQGMTNGRTSSRGQLLKEFQLKPIGKKMSSAVGFVPDTGPASRSVIRSIIKSSRLEEDRKRYLMTLLDDIKGANDLAKFHQMLVKIIMK” as the sequence, how does the “soluble on expression in E. coli” value read?
**A.** The value was “soluble”.

**Q.** With “MAEEQQNSDQSNGGNVIPTPEEVATFLHKTVEEGGWEKCWEEEITPWDQGRATPLIVHLVDTSSLPLGRALVPGCGGGHDVVAMASPERFVVGLDISESALAKANETYGSSPKAEYFSFVKEDVFTWRPTELFDLIFDYVFFCAIEPEMRPAWAKSMYELLKPDGELITLMYPITDHVGGPPYKVDVSTFEEVLVPIGFKAVSVEENPHAIPTRKGKEKLGRWKKINLEHHHHHH” as the sequence, how does the “soluble on expression in E. coli” value read?
**A.** The value was “soluble”.

**Q.** Which “soluble on expression in E. coli” value does the source give for “MAEHDITPEVTISKTQRRYKVGYVRARHQDRKTGIARYYSQHPSLHLKGDWLKEAGFDTGRGVTVKISEGGLTIIADSDEVQELRDGMFSVLNES” here?
**A.** The value was “not soluble”.

**Q.** Which “soluble on expression in E. coli” value does the source give for “MAEKSLITQETVGMTDEGLPPVLQGRNNSTQQVSFLRARVKCTDQGLITKIGVLPRGAFIKSIKIYAMTDFEDVTATFGKEPHGNDYGDVGLTQSTDSNVYIPMEERDVPLEVENTIYMTRDKKSSKGDVEVIVEFYTNR” here?
**A.** The value was “not soluble”.

**Q.** For “MAELSNCSKCGRLFVKLSTRDVCESCYQEEERQFERVYAFLRKRENRTATMAQVVEATGVEEKLIIKWIRAGRLQLVHFPNLGYPCDSCGAMIREGRLCAKCLGQLQADLRRAEGKKEKEARSRHATYYTQDHKER”, which “soluble on expression in E. coli” value is on record?
**A.** The value was “not soluble”.

**Q.** For “MAELTETSPETPETTEAIRAVEAFLNALQNEDFDTVDAALGDDLVYENVGFSRIRGGRRTATLLRRMQGRVGFEVKIHRIGADGAAVLTERTDALIIGPLRVQFWVCGVFEVDDGRITLWRDYFDVYDMFKGLLRGLVALVVPSLKATL”, which “soluble on expression in E. coli” value is on record?
**A.** The value was “soluble”.

**Q.** For “MAELYYEDNRAYSYTQSFLKMFYLIFGQAYSRDYLSIDKYNKLCSNKDTKIHMPKLKIDEETNIVFFSKEEMQQLDNYFKGTNVETAYLLGKYCGLRINECFGLKWDKIDLKNGTITIDRQMQYQNGMIKLVPLKTRNAKRKIYMCSKLKEYFTNLMQQQEKYKTELAELRQQKQTLIKDIQGNTISSLELVNSMPIGRMQTVNAMKYHTRTLKEKYHIDFKYHYLRHTYGTTLATLNTPEHLLCNQMGHSSSSVTHKYYIGISKQGIDELLKNLERV”, which “soluble on expression in E. coli” value is on record?
**A.** The value was “not soluble”.

**Q.** With “MAEQRSNIMRLPPSGYRLHRFPPLAQPVAVDEEFGLDNQGWQESQVDIQQQLEAGFQQGLQQGHEEGLRQGIEQGKQQGLLDGQKEGFQKGFVSGEQAGKQGFLEAAKPVNDLFQALSRWQSEKEQQQRHMICELVQKVAQQVIRAELTLMPQQILALVDETLSAMPGKAETVTVHLNPQDLERITHINADLPKSWKLVANNELPIGGCQLVTDDAEADASCDSRLEACMDNVKQHLLDEVSIPQVESENELEHHHHHH” as the sequence, how does the “soluble on expression in E. coli” value read?
**A.** Its value is “soluble”.

**Q.** With “MAESLLIKDIAIVTENEVIKNGYVGINDGKISTVSTERPKEPYSKEIQAPADSVLLPGMIDIHIHGGYGADTMDASFSTLDIMSSRLPEEGTTSFLATTITQEHGNISQALVNAREWKAAEESSLLGAELLGIHLEGPFVSPKRAGAQPKEWIRPSDVELFKKWQQEAGGLIKIVTLAPEEDQHFELIRHLKDESIIASMGHTDADSALLSDAAKAGASHMTHLYNAMSPFHHREPGVIGTALAHDGFVTELIADGIHSHPLAAKLAFLAKGSSKLILITDSMRAKGLKDGVYEFGGQSVTVRGRTALLSDGTLAGSILKMNEGARHMREFTNCSWTDIANITSENAAKQLGIFDRKGSVTVGKDADLVIVSSDCEVILTICRGNIAFISKEADQI” as the sequence, how does the “soluble on expression in E. coli” value read?
**A.** Its value is “soluble”.

**Q.** For “MAESMQSKPSFEYPKRAAIGSYWSNRNRDEKHFKNLGPASLSSASAGKVMQWMLSHTCNGVPKPKGGYDAFGKIWYAPCNMAESVAQWRASMSNDEAQPAKNRVYWIGHSSQLLCLSNGINILFDPIFSQRASPLSFAGPSRRFPPAATAAQLPPIHIVTVSHNHYDHMDKQSIKAVAARFPDAHFVVPLKLDRFLREWGVPGASITTLDWYEACEVKGVRVGCTPAQHWGKHSAFDDNEVLWCGWCVGWQPGQQQQPASTCEKPTLISFSGIEPSSEALVEAQRTWNRYKKYFFAGDTAYNPDVSTSIYAHFGPMDMAALPIGAYSPRWFMARAHIDPEHAVQIFKDQHIQQAVAVHWGTFELADEPLDEPPQVLRKTLKDASIDENRFQIIPMGKFIEF”, which “soluble on expression in E. coli” value is on record?
**A.** Its value is “soluble”.
